Data reported in the DeepSol protein solubility set.

Experiment: soluble on expression in E. coli; label from the status in PepcDB or PDB records

MHILVTGAAGFIGSHTVLELLNSGYTVLCIDNFANAISDEHGNAISLKRVAQLTGKDVPFQNVDVCDEAALEKVFSENKFDGIIHLAALKAVGESVAKPLQYYSNNLVASLNLIQMCLKYNVKNFVFSSSATVYGPPSELPITEKSQTGQGITNPYGQTKYMMEQILIDVGKANPEWNVVLLRYFNPVGAHKSGLIGEDPKGVPNNLMPYVSQVAIGKLPVLTIYGDQFDTVDGTGVRDYIHVVDLAKGHVKAFDRIKTVGNIGTEIYNLGTGVGYSVRQMVDALKKVSGRDIPVKIGVPRPGDVASVYCDPSLAQEKLGWRAETGLEEMCADLWNWQTKNPQGFSA
soluble on expression in E. coli: not soluble

MFQDMSKDFDIKRIKRSNTSCSTGVGAHVHPFNEIFYLSSGECTSFIDHNIYKFGKGDLVIVPSGCLHRTTYNGKGMHERIVISFRNEATEWIQNQTGKELMENCMKPGVVNIPEKRRDYVVALLDKLIFENDSPDELSPAFIKVGLIELLLFIIRCKNYEENVIKEIDVDNR
soluble on expression in E. coli: not soluble

TFFTATDGNHGRGVAWTANKLGQKSVVLMPKGSSEFRLNKIKGEGADASITDLNYDDAVRLANDYAEADDHGVMVQDTAWDGYEEIPAWIMQGYGTMAQEAIEQLKEYGVDRPTHVFVQAGVGSLAGAVQGYVASIYDECPITVVVEADEADCYYKSAEAGDGKPRFVGGDMPTIMAGLACGEPNTIGFEVLKNHAAAFVSAPDWVSAKGMRTLGNPLNGDEKVISGESGAVTTGLLVAAMEREDLADLRKDLKLDENSRILLISTEGDT
soluble on expression in E. coli: not soluble

MTTNAIDGSLWLTNAVQPERKTGNQILGKDDFLKILLAQLENQDPLNPMEDKDFIAQMASFSSLEQMMNIANLMQQWMQASSRDALLRYSEWIGKTVHWQDGETMMSAVVQSVMQKDGQVTLGLDNGTTIAADAVVKVEQKG
soluble on expression in E. coli: not soluble

MSLAHKFDPSKIKKLDDPSRLELFDPEKVLKEFGLKEGMTVLDVGTGAGFYLPYLSKMVGEKGKVYAIDVQEEMVNYAWEKVNKLGLKNVEVLKSEENKIPLPDNTVDFIFMAFTFHELSEPLKFLEELKRVAKPFAYLAIIDWKKEERDKGPPPEEVYSEWEVGLILEDAGIRVGRVVEVGKYCFGVYAMIVKQEEENPLMNVPFKIPPGEGHHHHHH
soluble on expression in E. coli: soluble

MINIETPTYYTATKKYELSFPSLETDLDADVVVIGGGFSGINTALELAEHGITDIVVLEARHLGFGGTGRNGGQIMAGIGHDLEKIRKDVGEDGLRAIFEISDLGADIIKGRIEKYAIDADFCHGYGYMGFNARQAKTLQAWEKEFRSLGSPHEIRYLHGAEVRQIIGSDAYGSALLHMGGGHVHSLNLLLGEAKALAGLGARIFEYSPALEVQYGERIRVRTAKGSVTANKLLWACDSFLNRLEPELHRTTINTYAFQMMTEPLPDELIQRISPIRGAYSDIRPVIDYYRVTNENRLLFGAATPFVERIPGDLKAWNRKLMLKIFPYLEHVRIDLAWGGPMACSANLFPQIGSLSGRPNAFFVQGYSGFGVTPSHIVCKVLAEGMSEGSARYDLLSSVRRIPIHGKDHFRPLLLSAGKTWHQLSGYWNGRR
soluble on expression in E. coli: not soluble

MASLLTETMPFRMTMEGTVNGHHFKCTGKGEGNPFEGTQDMKIEVIEGGPLPFAFDILSTSC
soluble on expression in E. coli: soluble

SLPHPAPGPADAEDPRLAEVMAAVRSSRRYQSVAPETVRRLAANALVASRGDLAEAVKRTKRSLHEVFGAYLPSPPKYDALLRQLRDAVDAGDDEAVRAVLHRAMSTHASTRERLPILEEFYREVFARLDAPTSVRDLACGMNPLAAPWMPGSDAFTYHASDIDTRLTEFLAAALETLGVAHDVRVRDLMTGVGEVATDVTLLLKTLPCIEAQGRGQGWDLIDAIRSPVVVVSFPTKSLGQRSKGMFNTYSANFGAWLENRPHDVEQVEFRNELVYFVRKNA
soluble on expression in E. coli: soluble

MSLELVSFVKSHIDQAVYFSTITSNPIEFNLPESLSLDTTDIENDIKTSCDEIFYSTGSYIPPMLNTLEQHLNLRIEYFNNLIEFTKINFNYKISPTVKLYLIEKISILKCCLALFKYISDKAILSNIWRDLVLNSFNDSSLEEFVLGKLDEFPRLFTIFLNDLSAKIVGFNDVEEKVKIVDLLITCVYDAVLENCEKSIRYDALQLDPLELDNKPMWFTNLTNIKAMNNIFFSFIFPDNDLSVENKQRLLTVVKLLYYVINQNMIWHKSMKQIETEEYKEVEALYNDNHANWIHVLCNIGVHEEALQICEFYHDLGGLVEILEKLDFEISRELYDQYFKMFGYEFATILFEYYINAKDLKALFFKFPNHHDLLNKFLLSSPPKYYKYAWIQEIIDNDYRKASDILTTLSVGEAGDGCEISERQLHLNIAKLSGLVDENFDANQMIEIQRDIDTIDHQTRIKKLLEEDPTGISMNQAFANNEFGEKFQETKYCIQNDKSINIKYIIDMLSMMDSVENLYEALKLTCIYRHSLGYEVSKYFQQSIWRRCIIEESKDGVIQLEGENSKIYQLLVKYFEGKLYEYDCKLPFVSFLMDRIGISMNFLSIIYGNDNNVLVSISDSIEREYHDLIRIGDTLESQLSTIIGSANESTGNECTINYETKSIEYEGHHHHHH
soluble on expression in E. coli: soluble

MGSDKIHHHHHHVLNNLGQTRYVVPRPHPQLVTTRTLVMQRIDGFNFDDVTGMQDAGIDTEDVIRTGMVAFMEGALIHGIFHGDLHGGNLFVLPDGRTALLDFGITARLDDDRRRAFLRLMMTATTNDLTGQMAALRDLGALPLDTDLQAVIRDLRLDEAPIDPTTLSGEEMVAEVQRVVKALLSYGARLPKELMLYVKNMVFLDGAIARLAPDLDLLAEVANISMMFASRHGERLMTEIGIDAANMQVNLDSVKAGFGVDLSTDRLTYRELQERRELIQKRMRSHVERTRRSAN
soluble on expression in E. coli: not soluble

MGSDKIHHHHHHMMQKPKVGQDVPEPSAGGMFQRDAMSPSVAHKPVLELKGNLLSLMVLYLFDSDRNLIEQQFTEKISGAKNFFKNAPIVIDLHALQNTSVPVDLSHLSDLFRKHGLVPVGVRGGNVQQQQAALNLSLGILPDAKPASSRGEPQTEVAVQATRDKVFTQPVRSGQQVAALQGDLVVLAAVNPGAEILAGKNIHVYGPLRGRAIAGVHGYSEARIFCRYFDAELVAVAGQYMLNEDFEDSVRGKPVHIFLENDRLKIQPFEI
soluble on expression in E. coli: not soluble

MSLLLIGNGRLITRDAQNHFFENGCVAIDGQVVKQVGTTEELKQAYPEATFIDAKGGVIMPGFINMHNHIYSTFARGLSLTNYHPKNFMDILVDQWWRIDRALTLEDTYQSGKVAYLDSIRNGVTTVFDHHASYGEITGSLTQLSNAADELGIRTCLCYEVSDRDGEQKMREAVQENAAFIKASSLRNDDMQKAMMGMHAAFTLSDASLELCAANTPDGIGYHIHIAEDLADVHDSLKKYGKPIVNRLFDLGILGKQTMAGHCIHIGPHEMELLRDTDTMVVTNPESNMGNAVGCPPAMRMFNEYGILMGLGTDGYTNDVTESYKVGNVIHKHHLADPNAAWAEIPTMLFDNNPQMANRYFKTKLGVLEPNAAADVIIVDYHGPTPMTKENYNMHILFGMNGGMVTDTVINGEIRMRNREVQGIDEEKVWHDAQTQAQSFWKRVNQEGHHHHHH
soluble on expression in E. coli: soluble

MKKPVIGITGNEKTHPDDDIMMSYAAKGFVEGVKDAGGIPIILPIGDQEMACHYISLIDKLILTGGQNVDPKFYGEPKTIDSDDYHLQRDIFELALIKEAIKQKKPIFSVCRGTQLFNVAMGGTLYQDIEDHWQDSSVEYTTQRLVTEPDTVLQEIYGEISHINSFHHQSIKDLAPNLKVVAHDPKDGIIEAVMSTDDVAFLGVQWHPELLFENRPKDKKLFDYVVNEL
soluble on expression in E. coli: not soluble

MGSSHHHHHHSSGLVPRGSHMTEIYTSVLSYRLLEGKAYSDADTRSLDRMMRSIDEFFSANPGYINFHIYRSYRTDSDVIFWYSSRNPDLMILAKERVQASMRPIAVSSFSSISIYDESPYNAMNKKLEDSLRLPPLRYFVAYPMSKTPDWYLLDFDTRKEIMHEHIKMALNHPDEKGIRSYTTYSFGIGDQEFVVLYEIPDIAAWSRVTEKLREARARKWIIKETPILLGRLVDAGDIAGFLL
soluble on expression in E. coli: soluble

GKAVIAIHGGAGAISRAQMSLQQELRYIEALSAIVETGQKMLEAGESALDVVTEAVRLLEECPLFNAGIGAVFTRDETHELDACVMDGNTLKAGAVAGVSHLRNPVLAARLVMEQSPHVMMIGEGAENFAFARGMERVSPEIFSTSLRYEQLLAARKEGATVLDHSGAPLDEKQKMGAVGAVALDLDGNLAAATSTGGMTNKLPGRVGDSPLVGAGCYANNASVAVSCTGTGEVFIRALAAYDIAALMDYGGLSLAEACERVVMEKLPALGGSGGLIAIDHEGNVALPFNTEGMYRAWGYAGDTPTTGIYREKGDTVATQ
soluble on expression in E. coli: soluble

MTRPDNEPARLRSVAENLAAEAAAFVRGRRAEVFGISRAGDGDGAVRAKSSPTDPVTVVDTDTERLLRDRLAQLRPGDPILGEEGGGPADVTATPSDRVTWVLDPIDGTVNFVYGIPAYAVSIGAQVGGITVAGAVADVAARTVYSAATGLGAHLTDERGRHVLRCTGVDELSMALLGTGFGYSVRCREKQAELLAHVVPLVRDVRRIGSAALDLCMVAAGRLDAYYEHGVQVWDCAAGALIAAEAGARVLLSTPRAGGAGLVVVAAAPGIADELLAALQRFNGLEPIPDALEHHHHHH
soluble on expression in E. coli: soluble

GPGSMVRKNMYDGWSYERLRQQRNRAHFLLEDPYRFVTVLLHNGKLYAIDSPCYHASGPLGEGELMDLEDSHTAASVACLRCPWHNILVAIDTGEIVEVHPDTSAVRGKDDGGRELAAPSYPLRPHWEASAGSVRLSRGNVVQRTHKVSLDESNGIMTIEIEDEATMRRHPLPSDAAAGILESGALTMQIFDIKSKGMS
soluble on expression in E. coli: soluble

MSKVALFAGGDLSYISRDFDYFVGIDRGSLFLLENGLPLNMAVGDFDSVSQKAFTDIKEKAELFITAHPEKNDTDTELALKEVFARFPEAEVTIFGAFGGRMDHLLSNIFLPSDPGIAPFMAQIALRDQQNMITYRPAGQHLIHQEEGMTYVAFMAEGEADLTITGAKFELTQDNFFKKKIYSSNAFIHQPITVSLPSGYLIIIQSKDWS
soluble on expression in E. coli: soluble

MAEIQFSKGVAETVVPEVRLSKSKNGQSGMAKFYFLEPTILAKESTDDITGMYLIDDEGEIITREVKGKFINGRPTAIEATVILNSQPEWDRFMRFMERYGAENGLGFSKSELEHHHHHH
soluble on expression in E. coli: soluble

MAHHHHHHMDRRHLELEDAQERASAEEVATQASAEHKHYMNDSDEDSDEENGIDDEQSASLVAMLRTQEEIDSAIAGFTKGTRMLLASSGNGYVSYLDGSVHFTIAKVESHNASNREKVMQALAGTNVAMPTAEEYSLEEVRQAMHDRDTARKKLDALRALQDPTYTARIRSAEKDTYGTPVQQLMEEDGDMSALVANCEDAKRFAESVRKAYNSRAAASAHALACALCTPPFTAEQESTSEAQAPAGKMANAEDGVSQPTGANSPSSSTSAQ
soluble on expression in E. coli: soluble

MSYSSQGVVEKGKVMPGDVLATIEEFLPGEGVYVDPVKGFIRAAAPGVAYLDMSRRIAYVKPHKKPQTPGPGSEVAALVTGVRGDLVVAEVYGVVRLSPKPAWLYELPSPYSAAIPISQIADEYIKNIEDYYRMGDWILAKIVSRTPPFTLSTVEPRYGVVYAICSRCGAVMEFQSERSMKCPKCGNVEKRKVSIHAKSRHLRIRLVRNLVIYRS
soluble on expression in E. coli: soluble

MAHHHHHHMSSRIGHAGTGMPTRGIASFPNSPPAVRNSCSTADTEGFGVSMESTIFTGTFSTAACAHAPTRRTVEAREQTSTVLDHLVTHIVDVPFFLARNAEERAHGCSLSLATAACPGTKLVMRNPRRRLISHSSQTHGAPASSHWPKVLFVPDSSSQRLAAPP
soluble on expression in E. coli: not soluble
